Test system: MS2 coat protein
Experiment: apparent KD of MS2 coat protein; designed switch direction (-1 OFF switch, 1 ON switch): -1; higher = weaker reporter binding
In short: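 The apparent KD reported per design is the median over clusters of curve fits to normalised cluster fluorescence. The RNA switches were transcribed on Illumina chips by stalled E. coli RNA polymerase. SNAP-549-labelled MS2 coat protein was titrated from 0.7 or 1.5 nM, doubling up to 3 µM, in Tris-HCl pH 7.5 buffer containing KCl, MgCl2, BSA, DTT, tRNA and Tween-20, with no input, 200 uM small-molecule ligand, or an oligonucleotide input.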

[1] = input ligand: microRNA oligo, concentration not stated
[2] = Eterna round: R95, input ligand: microRNA oligo, concentration not stated
[3] = Eterna round: R95, input ligand: FMN 200 uM
[4] = Eterna round: R95, input ligand: none

Row | Sequence | apparent KD of MS2 coat protein (input ligand: FMN 200 uM) | apparent KD of MS2 coat protein (input ligand: none) | apparent KD of MS2 coat protein [2] | also measured
1 | CUCCGGCGUGUAGGAUAUGGAUCCGAUUAGGAUCCAGAAGGACAUGAGGAUCACCCAUGUACAUGUCGGCGGUCGUCACCGGGC [salish99_ExNG1_r04_209] (Eterna round: R96, puzzle: Exclusion NG 1) | 34 nM | 20.1 nM |  | apparent KD of MS2 coat protein [1]: 14.4 nM
2 | CUCGUGUGAGGAUAUCGAUUAUGGAAGUCUAGAUCCAUACGCGAGAAGGCACAUGAGGAUCACCCAUGUAAUGG [jl-ex4-4.35 ViennaUCT mod] (Eterna round: R97, puzzle: Exclusion 4) | 68.3 nM | 176 nM |  | 
3 | CUCGUGUGAGGAUAUUCACACCCGUUGCAGCGACGGACAAAGAAGAAGGCACAUGAGGAUCACCCAUGUAAAGA [Onan] (Eterna round: R97, puzzle: Exclusion 4) | 97.8 nM | 192 nM |  | 
4 | CUCUUGUCAGGAUAUUAUGGACGAUAGCAGGACUACGUCAGUGAGAAGGGACAUGAGGAUCACCCAUGUAAAAU [Anqubi] (puzzle: Exclusion 4) |  |  | 72.6 nM | 
5 | CUCUUGUGAGGAUAUCUCCCAGCGAUUAAUUGGGCAGUCUGAGAGAAGGUACAUGAGGAUCACCCAUGUGAUAG [Eternabot (L1) Solution 73] (Eterna round: R97, puzzle: Exclusion 4) | 69.3 nM | 61.7 nM |  | 
6 | CUCUUGUUAGGAUAUCAAACCAGCGGCGGAACCGCUGGUAGUGAGAAGGGACAUGAGGAUCACCCAUGUAAGAA [Bige] (puzzle: Exclusion 4) |  |  | 51.1 nM | apparent KD of MS2 coat protein [3]: 108 nM; apparent KD of MS2 coat protein [4]: 61.3 nM
7 | CUGAGCUCAGGAUAUACAUGAGGAUCACCCAUGUGUUCCUGCGACGUUAGUUGCACAUGUAGAAGGGAGUUCGG [Less Extended Mod of JL - ex3-3.35 Brourd mod] (puzzle: Exclusion 3) |  |  | 218 nM | 
8 | CUGAGUAGUCAGGAUAUGUGGUACAAAAGUACAGCAGAAGGGAUUACAUGAGGAUCACCCAUGUUUACUUCAUG [Omei Ex6 B16] (Eterna round: R97, puzzle: Exclusion 6) | 57.9 nM | 32.6 nM |  | 
9 | CUGAUGGACUAGGAUAUCCUCAUCGAUCAGGGAGGAGAAGGAGUCACAUGAGGAUCACCCAUGUGAUGGUAAAA [Atqubi] (puzzle: Exclusion 6) |  |  | 11.9 nM | apparent KD of MS2 coat protein [3]: 14.9 nM; apparent KD of MS2 coat protein [4]: 13.6 nM
10 | CUGAUGUUAGGAUAUCAGGCGCCCGCCACUGGCAGGGCGCAUGAGAAGGGACAUGAGGAUCACCCAUGUAGUAA [Anorbeus] (puzzle: Exclusion 4) |  |  | 26.3 nM | 
11 | CUGCUCCGUGUAGGAUAUCCGCGCAACCAAUGCGGAGAAGGACAUGAGGAUCACCCAUGUAUGUUAUUAUCACGUGAAGCGUCC [Design 26] (Eterna round: R96, puzzle: Exclusion NG 1) | 24.8 nM | 24.8 nM |  | apparent KD of MS2 coat protein [1]: 13.7 nM
12 | CUGCUCCGUGUAGGAUAUGCAUGCAACCAAUAUGCAGAAGGACAUGAGGAUCACCCAUGUAUGUUAUUAUCACGUGAAGCGUCC [Design 22] (Eterna round: R96, puzzle: Exclusion NG 1) | 27.1 nM | 29.8 nM |  | apparent KD of MS2 coat protein [1]: 19.5 nM
13 | CUGCUGGAGCUUUGCUUUAGUCGUACAUGAGGAUCACCCAUGUAGGAUAUGGUAGGCUUUGCUUACUAGAAGGAUGGAGUGGUC [salish99_ExNG3_r04_607] (Eterna round: R96, puzzle: Exclusion NG 3) | 166 nM | 50.2 nM |  | apparent KD of MS2 coat protein [1]: 38.1 nM
14 | CUGCUGGAGCUUUGCUUUGGUCGUACAUGAGGAUCACCCAUGUAGGAUAUGGUAGGCUUUGCUUGCUAGAAGGAUAGAGUGGUC [salish99_ExNG3_r04_609] (Eterna round: R96, puzzle: Exclusion NG 3) | 197 nM | 88.8 nM |  | apparent KD of MS2 coat protein [1]: 77.5 nM
15 | CUGGUCCGAGGAUAUAUUAAGUGAAACAUGAGGAUCACCCAUGUAAUUUGAUGGAUGUAAAUAGAAGGCGGACUAG [JL-ex5-3.09] (puzzle: Exclusion 5) |  |  | 37.1 nM | apparent KD of MS2 coat protein [3]: 29.4 nM; apparent KD of MS2 coat protein [4]: 43.8 nM
16 | CUGGUCCGAGGAUAUAUUAAGUGAUACAUGAGGAUCACCCAUGUUAUUUAAUGGAUGUAAAUAGAAGGCGGACUAG [Mat - Exclusion 5 - JL mod - D70] (puzzle: Exclusion 5) |  |  | 42.6 nM | apparent KD of MS2 coat protein [3]: 51 nM; apparent KD of MS2 coat protein [4]: 44.6 nM
17 | CUGGUCCGAGGAUAUAUUAAGUGAUACAUGAGGAUCACCCAUGUUAUUUGAUGGAUGUUAAUAGAAGGCGGACUAG [JL-ex5-3.18] (puzzle: Exclusion 5) |  |  | 35.7 nM | apparent KD of MS2 coat protein [3]: 78.3 nM; apparent KD of MS2 coat protein [4]: 57.6 nM
18 | CUGUACUGAGGAUAUACAUGAGGAUCACCCAUGUGUUCCAGCUAGGAAACUAGCAAAUGUAGAAGGCAGUACAG [Mat - Exclusion 3 - Eli Mod - D50] (Eterna round: R97, puzzle: Exclusion 3) | 307 nM | 342 nM |  | 
19 | CUGUACUGAGGAUAUACAUGAGGAUCACCCAUGUGUUCCUGCUAGGAAACUAGCAAGGGUAGAAGGCAGUACAG [Mat - Exclusion 3 - Eli Mod - D46] (Eterna round: R97, puzzle: Exclusion 3) | 100 nM | 15.7 nM |  | 

Row | Sequence | apparent KD of MS2 coat protein (input ligand: FMN 200 uM) | apparent KD of MS2 coat protein (input ligand: none) | apparent KD of MS2 coat protein [2] | also measured
20 | CUGUUCCGUGUAGGAUAUGCAUAUUCCCAUUAUGCAGAAGGACAUGAGGAUCACCCAUGUAUGUUAUUAUCAUGUGUUACAUGC [Design 8] (Eterna round: R96, puzzle: Exclusion NG 1) | 635 nM | 36.4 nM |  | apparent KD of MS2 coat protein [1]: 31.3 nM
21 | CUUAAAAGGUAGGAUAUGCUAGACGAAAGUCUAGCAGAAGGACCUACAUGAGGAUCACCCAUGUGUCCAAUAAG [Mat - Exclusion 6 - Eli Mod - D23] (Eterna round: R97, puzzle: Exclusion 6) | 50.6 nM | 86.3 nM |  | 
22 | CUUAACUCAGGAUAUGCGGCGACAAACAUGAGGAUCACCCAUGUAAAUUGGUGAACCUGAGCAGAAGGGAGUACAA [EX5 B.2] (Eterna round: R97, puzzle: Exclusion 5) | 66.4 nM | 22.6 nM |  | 
23 | CUUAGACAUGAGGAUCACCCAUGUGAGGAUAUGAAAUUAAUUAAUUAUUAAGUAUGAAUCAGAAGGCACAUAUG [Mat - Mod of Hyphema D36] (puzzle: Exclusion 1) |  |  | 81.6 nM | apparent KD of MS2 coat protein [3]: 79.9 nM; apparent KD of MS2 coat protein [4]: 78.9 nM
24 | CUUAGACAUGAGGAUCACCCAUGUGAGGAUAUGAUGCGAUCGUGCUGACAUGAUCGCAUCAGAAGGCACAAAUG [Mat - Mod of JL D65] (puzzle: Exclusion 1) |  |  | 146 nM | 
25 | CUUAGCCUAAAAUCACGCAAGCUUCUUGCUUGUCUUAAGACAUGAGGAUCACCCAUGUCCGGGCUGAACUUAUGGAA [Enonzave] (puzzle: Sensor v3, turn-off variant 2) |  |  | 21.1 nM | apparent KD of MS2 coat protein [3]: 17.8 nM; apparent KD of MS2 coat protein [4]: 17.4 nM
26 | CUUCGUAUAGAGGAUAUAGGAUACCUCGGUGUCCUAGAAGGCUGUACAUGAGGAUCACCCAUGUACUUCAGAUC [Exclusion 6 - B - 14:d] (puzzle: Exclusion 6) |  |  | 12.6 nM | 
27 | CUUGUGUGAGGAUAUCAGUAGUAGUACGAUAGUAUUACUGCUGAGAAGGCACAUGAGGAUCACCCAUGUUCUUC [Exclusion 4 - Mod Omei Ex4 344 mod v.4] (puzzle: Exclusion 4) |  |  | 23.6 nM | 
28 | CUUGUGUGAGGAUAUGCGUAGGCAGUAAGUAAGUAGCCGGAGCAGAAGGCACAUGAGGAUCACCCAUGUGUUAC [EX4 B.1] (Eterna round: R97, puzzle: Exclusion 4) | 121 nM | 72.6 nM |  | 
29 | CUUGUUUAUGUAGGAUAUGCCUGGCGUGCCUUUGCAGAAGGACAUGAGGAUCACCCAUGUAUUGCGGUCUGCGUUCAGAUCGCA [salish99_ExNG1_r4_045] (Eterna round: R96, puzzle: Exclusion NG 1) | 34.6 nM | 34.5 nM |  | apparent KD of MS2 coat protein [1]: 23.2 nM
30 | CUUUAGUGAGGAUAUCAGUAGUAGAACAAUAGUACUACUACUGAGAAGGCACAUGAGGAUCACCCAUGUUCCUC [Fiskers Ex 4 Super stable 44 mod 8] (puzzle: Exclusion 4) |  |  | 34.5 nM | 
31 | CUUUUGUGAGGAUAUCAGGUGUGCUAGCGUACUGGUACAUCUGAGAAGGCACAUGAGGAUCACCCAUGUUCCUC [JL-ex4-3.17 Brourd mod] (puzzle: Exclusion 4) |  |  | 39.1 nM | 
32 | CUUUUGUGAGGAUAUCAGUAGUAAAUAAAUAAAAUUAAUACUGAGAAGGCACAUGAGGAUCACCCAUGUUCCUC [Mat - Exclusion 4 - Mod of Salish - D63] (puzzle: Exclusion 4) |  |  | 33 nM | 
33 | CUUUUGUGAGGAUAUCAGUAGUAAAUUAAUAAAAUUACUACUGAGAAGGCACAUGAGGAUCACCCAUGUUCCUC [salish99_ex3_r3_078] (puzzle: Exclusion 4) |  |  | 41.9 nM | 
34 | CUUUUGUGAGGAUAUCAGUAGUAAUAAUAUAAAAUUACUACUGAGAAGGCACAUGAGGAUCACCCAUGUUCCUC [salish99_ex3_r3_102] (puzzle: Exclusion 4) |  |  | 36.3 nM | 
35 | CUUUUGUGAGGAUAUCAGUAGUUAAAAAAUAAAAUUACUACUGAGAAGGCACAUGAGGAUCACCCAUGUUCCUC [salish99_ex4_r3_016] (puzzle: Exclusion 4) |  |  | 40.5 nM | 
36 | CUUUUGUGAGGAUAUUAGUAGUAAAAAAAUAAAAUUACUACUGAGAAGGCACAUGAGGAUCACCCAUGUUUCUC [salish99_ex4_r3_037] (puzzle: Exclusion 4) |  |  | 29.2 nM | 
37 | CUUUUGUGAGGAUAUUAGUAGUAAAUAAAUAAAAUUACUACUGAGAAGGCACAUGAGGAUCACCCAUGUUCUUC [salish99_ex4_r3_066] (puzzle: Exclusion 4) |  |  | 18.8 nM | 
